Assay results taken from the DeepSol protein solubility set.

assay: soluble on expression in E. coli; label from the status in PepcDB or PDB records

Soluble on expression in E. coli, soluble:
MSLAEINKNEVDIVIGALNADLTQFLTSWRPFFSGFHLIVVKDPELKEELNIPEGFDVDVYSKTDMEKVVGASNSTMFSGYSCRYFGYLVSKKKYIVSIDDDCVPAKDPKGFLVDAVTQHVINLENPATPLFFNTLYDPYCEGADFVRGYPFSLRSGVPCAASCGLWLNLADLDAPTQALKTEKRNTAYVDAVMTVPAKAMLPISGINIAFNRELVGPALVPALRLAGEGKVRWETLEDVWCGMCLKHISDHLGYGVKTGLPYVWRNERGDAVESLRKKWEGMKLMEKSVPFFDSLKLPETALKVEDCVIELAKAVKEQLGSDDPAFTQAADAMVKWVQLWNSVNSSA
MSLAFDETRLPDDVERGAQGGPRFKTTVITLSSGFERRNSDWAQTRGEWDVGYGMQDATDLEDVIAFFYARNGRARGFRFKDWTDYVLSRQAIGTTDGSNATFQLFKRYTSGSTSFDRILSKIVTATTQVWVNNVEAPEGGASTSFAIDTTTGMITLGSSLAAQSGTTVEAACQFDVPVRFGSDALDITAEWADAVGAPNIPIVEIRVEGHHHHHH
MTTANTPVRPKSAIDAVADAYTEKLIELNPSFATTLGLPGHETEYQDYSPAGAAAHAEATRLALEALAGLEPSDDVDAVTLDAMRERLGLELEIHQSGWDAADLNNIASPAQDIRAIFDLMPTDTVEHWEHIAGRAANVPGAIEGYIASLRAAKDDRKVAAARQIRIVIEQTGRYAAEDGFFAKMAADASLGDAPLPAEVQDKLDAGTSAARSAYSALGAFLRDELLPVAPEKDAVGRERYSLASRSFIGAEVDLEETYAWGVQELERLISEQEKVAGQIKPGASIEEAKSILNNDPARQIKGTDALKAWMQELSDRAVSELADVHFDIPDVMKTLECMIAPTDEGGIYYTGPSDDFSRPGRMWWSVPAGEDTFTTWSETTTVFHEGVPGHHLQVATATYRRELLNNWRRNVCWVSGHGEGWALYAEQLMLELGYLKDPGDHMGMLDGQRMRAARVVFDIGVHLELPVPERWGTGTWTPEKGFDFLKANLDISEGQLQFEFTRYLGWPGQAPSYKVGQRLWEQIRAELESREGFDLKSFHSKALNIGSVGLDVLRRALL
MARKKVQRKLDGWKSKEWYNIEAPAYLNRVIVGTTMAGDPSLLVGRNVETTVGELTNDMTKNNTKVILRVNNVVGDIATTDLMGHELTTDYVRSIVKRQTSRIDANVDVRTKDGFVIRVKPTCFTIKRARSSQMQAIREMMVDIVKKRASETDFETFMQEAILGRLSAAIYRQAKFIYPLRRVEIRKTQVEAMPAAAPAAPAAALEHHHHHH

Soluble on expression in E. coli, not soluble:
MTLVVPFDGSELAEAALVRAAEFGTVFEEDVLAVSVIRNGNAKYAREHDWIGPNEDFDLEAVVTSLHEQVIDLCPSSDFRHTVVDRYAPAGAVAKAIRKLAKREDASMVFIGSENAGHLVTSISSVGGSIASDDAYDVVIVRHR
GHHHHHHAIAENLYFQSNSHDGSNFSNKFSAHKDVVEDLLRKDTVGLVTFQDFRARREYLERCAVAEAACQNASRRAEELETKKKRVKRANLSRLSFGDSLEDQEENSVEFAKITRFASSKKANGVGFNTSGQDIVKEPDVFSPKEEGFFGKQNRKIGMDPGVDTSFLPDRDREQEERLERERLKQQWLSEQERVKNEEIDIIYSIWDGRGQRKLLSCKKGTTIAKFLSIVQQKVSTLKHCKVEDLMFIKEDMIIPHHLSFYDLISMKARGKNGSLFCFDVHEDIRIRNDASVEKDDSHAAKVVERRWYERNKHIYPASMWEVFDVSKNYGRVQKDFFGN
MVFDPRTLDNPKEISAYRDQRYQGTVRDQETALRTSCTLYVGNLSYYTKEDQVYELFGRAGDVRRVIMGLDRFKKTPCGFCFVEYYTREDAELALQNISNTRMDDRVIRADWDAGFIEGRQYGRGKHGGQVRDEYRKDYDPERGGYNRAIAQKG
